Test results as given in patent publication US20200339680A1 (Alector, published 2020).

Legend:
human TMEM106B [1] = molecular target: T1, human TMEM106B (human, UniProt Q9NUM4 2-274); assay: FACS A549;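 also: flow cytometry of cells incubated on ice for 1 h with hybridoma supernatant or purified antibody at 10 µg/mL, dead propidium iodide-positive cells gated out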
T1 construct: full-length, transiently expressed on HEK293 cells, or natively expressed on HeLa, U251 and A549 cells (the cell is named under assay); also the source of the Pepscan peptides; also called huTMEM106B; huTMEM
Protocol: (§1) All cells were cultured in either T75 or T150 flasks. […] The enzyme was quenched by addition of fresh media, and the cells were then distributed into 96-well plates for FACS analysis.
(§2) FACS analysis was performed as follows. Each cell type was aliquoted in 96-well round bottom plates (2×10^5 cells per well), washed once with FACS buffer (PBS+2% FBS+1 mM EDTA), and incubated with 50 μL of hybridoma supernatant or purified antibody (10 μg/ml in FACS buffer) on ice for 1 hour. […] Following this secondary incubation, the cells were again washed 2× with ice-cold FACS buffer and resuspended in a final volume of 50 μL of FACS buffer+0.25 μl/well propidium iodide (Fisher Scientific #4BDB556463). Analysis was performed on a FACSCanto system (BD Biosciences) or iQue (Intellicyt), with sort gates drawn to exclude dead (i.e., propidium iodide positive) cells.

human TMEM106B [2] = molecular target: T1, human TMEM106B; assay: FACS HeLa
Protocol: as §1, §2

human TMEM106B [3] = molecular target: T1, human TMEM106B; assay: FACS U251
Protocol: as §1, §2

mouse TMEM106B = molecular target: T2, mouse TMEM106B (mouse, UniProt Q80X71 2-275); assay: FACS Neuro2a;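 also: flow cytometry of antibody binding to cells: hybridoma supernatant or purified antibody at 10 µg/ml, 1 h on ice, secondary detection, propidium iodide–positive dead cells gated out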
T2 construct: transiently expressed on HEK293 cells, or native on mouse Neuro2a cells; also called moTMEM106B; murine TMEM106B
Protocol: as §1, §2

human TMEM106B [4] = molecular target: T1, human TMEM106B; assay: FACS A549 1 ug/ml
human TMEM106B [5] = molecular target: T1, human TMEM106B; assay: FACS A549 10 ug/ml
Protocol: (§3) Purified anti-TMEM106B antibodies were evaluated for their binding affinity to various TMEM106B-expressing cell lines including HEK293 transiently transfected with human/cyno/mouse TMEM106B, as well as HeLa cells and A549 cells. Antibodies tested for this experiment were mouse IgGs purified from hybridoma supernatant. Affinity binding to cells was determined as follows. Briefly, 1×10\hat{ }5 cells were aliquoted per well in 96-well round bottom plates and incubated with 50 μL of purified anti-TMEM106B antibody at various concentrations (10× dilutions starting at 10 μg/ml) in FACS buffer (PBS+2% FBS+1 mM EDTA). […] Sorting was performed on a iQue (Intellicyt), with sort gates drawn to exclude dead (propidium iodide+) cells. Binding data was analyzed using median fluorescent intensity (MFI) and graphed in Prism. Values presented are MFI.

human TMEM106B [6] = molecular target: T1, human TMEM106B; assay: FACS HEK+huTMEM 10 ug/ml;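 also: flow cytometric binding of purified mouse IgG antibodies to HEK293 cells transiently expressing human TMEM106B, read as median fluorescence intensity on live cells with propidium iodide-positive cells excluded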
human TMEM106B [7] = molecular target: T1, human TMEM106B; assay: FACS HEK+huTMEM 0.1 ug/ml;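 also: flow cytometry binding of purified mouse IgG antibodies to HEK293 cells transiently expressing TMEM106B, read as median fluorescence intensity on live cells (propidium iodide negative gating)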
Protocol: as §3

human TMEM106B [8] = molecular target: T1, human TMEM106B; assay: FACS HEK+huTMEM 1.0 ug/ml;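 also: binding of purified mouse IgG antibodies to HEK293 cells transiently expressing human TMEM106B, read by flow cytometry as median fluorescence intensity of live, propidium iodide-negative cells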
human TMEM106B [9] = molecular target: T1, human TMEM106B; assay: FACS HEK+huTMEM 0.1 ug/ml (2nd column so headed);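 also: flow cytometry binding of purified anti-TMEM106B mouse IgG to HEK293 cells transiently transfected with TMEM106B, read as median fluorescence intensity on live (propidium iodide-negative) cells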

Binder | MFI (human TMEM106B [1]) [MFI] | MFI (human TMEM106B [2]) [MFI] | MFI (human TMEM106B [3]) [MFI] | MFI (mouse TMEM106B) [MFI] | MFI (human TMEM106B [4]) [MFI] | MFI (human TMEM106B [5]) [MFI] | MFI (human TMEM106B [6]) [MFI] | MFI (human TMEM106B [7]) [MFI] | MFI (human TMEM106B [8]) [MFI] | MFI (human TMEM106B [9]) [MFI]
TM-37 (antibody, V domains shown) VH: QVQLQQSGAELAKPGASVKLSCKASGYTFTSYWMHWVKQRPGQGLEWIGYVNPSSGYTKNNQKFKDKVTLTADKSSSTAYMQLSSLTYEDSAVYYCAREGGSISDWYFDVWGTGTTVTVSS VL: DIVMTQAAPSVPVTPGESVSISCRSSKSLLHSNGNTYSYWFLQRPGQSPQLLIYRMSNLASGVPDRFSGSGSGTAFTLRISRVEAEDVGVYYCMQHLEYPYTFGGGTKLEIK | 1040 | 254 | 408 | 208 | 2980 | 4210 | 50500 | 29400 | 58700 | 3920
TM-44 (antibody, V domains shown, mouse IgG (hybridoma)) VH: EVQLVESGGGLVKPGGSLKLSCAASGFTFSDYGMHWVRQAPEKGLEWVAYISSGSSTIYYADTVKGRFTISRDNAKNTLFLQMTSLRSEDTAMYYCARNYGSPYAMDYWGQGTSVTVSS VL: not shown | 392 | 168 | 522 | 202 | 404 | 466 | 512 | 309 | 337 | 300
TM-45 (antibody, V domains shown) VH: QVQLQQSGAELAKPGASVKLSCKASGYTFTNYWMHWVKKRPGQGLEWIGYINPSSGYTKYNQKFKDKATLTADKSSNTAYMQLSSLTYEDSAVYYCTREGGSISDWYFDVWGTGTTVTVSS VL: DIVMTQAAPSLPVTPGESVSISCRSSKSLLHSNGNTYLYWFLQRPGQSPQLLIYRMSNLASGVPDRFSGSGSGTAFTLRISRVEAEDVGVYYCMQHLEYPYTFGGGTKLEIK | 819 | 191 | 517 | 187 | 1860 | 3240 | 58100 | 21300 | 57600 | 2500
TM-48 (antibody, V domains shown) VH: QVQLQQSGPELVKPGASVKLSCKASGYTFTSYDINWVKQRPGQGLEWIGWIYPRDGNTQYIEKLKGKATLTVDTSSSTAYMELHSLTSEDSAVYFCARWIFYAMDYWGQGTSVTVSS VL: DVLMTQTPLSLPVSLGNQASISCRSSQSIVHGNGNTYLEWYLQKPGQSPKLLIYKVSNRFSGVPDRFSGSGSGTDFTLKISRVEAEDLGVYYCFQGSHLPYTFGGGTKLEIK | 677 | 219 | 346 | 292 | 1580 | 2450 | 38200 | 21600 | 39900 | 4050
TM-49 (antibody, V domains shown, mouse IgG (hybridoma)) VH: QVQLQQPGAELVRPGSSVKLSCKASGYTFTRFWMHWVKQRPIQGLEWIGNIDPSDSQTHYNQKFKDKATLTVDKSSSTAYMQLSSLTSEDSAVYYCARLITVDYAMDYWGQGTSVTVSS VL: QIVLTQSPAIMSASPGEKVTISCSASSSVSYMYWYQQKPGSSPKPWIHRTSNLASGVPVRFSGSGSGTSYSLTISSMEAEDAATYYCQQYHSYPPTFGAGTKLELK | 924 | 187 | 434 | 291 | 473 | 613 | 16500 | 3030 | 15700 | 756
TM-50 (antibody, V domains shown, mouse IgG (hybridoma)) VH: QVQLKESGPVLVAPSQSLSITCTVSGFSLTNYGVHWVRQPPGKGLEWLGVIWAGGNTNYNSALMSRLSISKDNSKSQVFLKMNSLQTDDTAMYYCAKEAKLLRSYAMDYWGQGTLVTVSA VL: DVQMTQTTSSLSASLGDRVTISCRASQDINNYLYWYQQKPDGTVKLLIYYTSMLHSGVPSRFSGSGSGTDYSLTISNLEQEDIATYFCQQGSTLMYTFGGGTKLEIK | 580 | 159 | 260 | 257 | 381 | 445 | 396 | 305 | 314 | 294
TM-52 (antibody, V domains shown, mouse IgG (hybridoma)) VH: QVQLQQPGAELVKPGASVKLSCKASGYTFTNYWMHWVKQRPGQGLDWIGNIDPSDSETHYNQKFKDKATLTVDKVSSTAYMQLSSLTSEDSAVYYCARRGYYGRSPFAYWGQGTLVTVSA VL: ENVLTQSPAIMSASPGEKVTMTCSASSSVSYMHWYQQKSNTSPKLWIYDTSKLASGVPGRFSGSGSGNSYSLTISSAEAEDVATYYCFQGSGYPLTFGAGTKLELK | 987 | 227 | 341 | 210 | 401 | 443 | 7020 | 1940 | 8200 | 451
